Experiment in all cases: FRET
What all share (details): chain shown with the change, n = 2, minimum of 20 cells analyzed in each n, read off a plot

Experiment [1] addresses T1, NIS D237A, cerulean- or citrine-tagged, Q92911.
T1 chain: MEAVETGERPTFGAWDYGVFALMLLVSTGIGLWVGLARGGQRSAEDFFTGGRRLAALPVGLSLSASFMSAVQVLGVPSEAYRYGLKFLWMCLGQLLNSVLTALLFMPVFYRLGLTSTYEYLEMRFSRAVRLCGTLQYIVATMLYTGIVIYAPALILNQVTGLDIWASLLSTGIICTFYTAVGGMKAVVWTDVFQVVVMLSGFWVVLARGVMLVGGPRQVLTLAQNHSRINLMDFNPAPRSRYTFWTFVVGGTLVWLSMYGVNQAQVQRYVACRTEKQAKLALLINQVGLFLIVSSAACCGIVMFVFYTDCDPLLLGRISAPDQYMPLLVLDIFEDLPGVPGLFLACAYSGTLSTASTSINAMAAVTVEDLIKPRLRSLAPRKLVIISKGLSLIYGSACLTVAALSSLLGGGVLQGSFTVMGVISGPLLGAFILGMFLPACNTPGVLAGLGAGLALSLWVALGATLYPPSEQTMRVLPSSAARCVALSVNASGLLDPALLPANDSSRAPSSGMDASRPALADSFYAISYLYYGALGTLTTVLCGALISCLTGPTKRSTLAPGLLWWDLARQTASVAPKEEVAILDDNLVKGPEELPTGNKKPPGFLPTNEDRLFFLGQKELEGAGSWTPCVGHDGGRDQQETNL

Experiment [2] concerns the target T2, NIS Y242A, cerulean- or citrine-tagged, Q92911.
T2 chain: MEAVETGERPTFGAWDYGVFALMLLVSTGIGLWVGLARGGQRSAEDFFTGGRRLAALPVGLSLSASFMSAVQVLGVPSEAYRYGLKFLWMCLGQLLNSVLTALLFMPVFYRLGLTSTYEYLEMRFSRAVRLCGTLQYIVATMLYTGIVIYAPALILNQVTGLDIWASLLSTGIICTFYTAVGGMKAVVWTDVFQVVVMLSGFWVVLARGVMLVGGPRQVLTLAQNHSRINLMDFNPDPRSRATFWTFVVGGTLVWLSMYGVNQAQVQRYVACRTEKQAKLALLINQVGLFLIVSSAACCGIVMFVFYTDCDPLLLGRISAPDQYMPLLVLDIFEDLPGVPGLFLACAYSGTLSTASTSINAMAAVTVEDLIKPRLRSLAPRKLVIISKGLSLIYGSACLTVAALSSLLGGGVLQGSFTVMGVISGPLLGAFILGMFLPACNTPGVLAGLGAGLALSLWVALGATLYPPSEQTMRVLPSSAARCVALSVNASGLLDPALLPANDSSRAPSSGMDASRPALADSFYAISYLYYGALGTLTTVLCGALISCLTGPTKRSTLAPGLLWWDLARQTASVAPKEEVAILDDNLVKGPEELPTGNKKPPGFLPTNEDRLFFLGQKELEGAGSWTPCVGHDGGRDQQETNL

Experiment [3] addresses T3, NIS T243A, cerulean- or citrine-tagged, Q92911.
T3 chain: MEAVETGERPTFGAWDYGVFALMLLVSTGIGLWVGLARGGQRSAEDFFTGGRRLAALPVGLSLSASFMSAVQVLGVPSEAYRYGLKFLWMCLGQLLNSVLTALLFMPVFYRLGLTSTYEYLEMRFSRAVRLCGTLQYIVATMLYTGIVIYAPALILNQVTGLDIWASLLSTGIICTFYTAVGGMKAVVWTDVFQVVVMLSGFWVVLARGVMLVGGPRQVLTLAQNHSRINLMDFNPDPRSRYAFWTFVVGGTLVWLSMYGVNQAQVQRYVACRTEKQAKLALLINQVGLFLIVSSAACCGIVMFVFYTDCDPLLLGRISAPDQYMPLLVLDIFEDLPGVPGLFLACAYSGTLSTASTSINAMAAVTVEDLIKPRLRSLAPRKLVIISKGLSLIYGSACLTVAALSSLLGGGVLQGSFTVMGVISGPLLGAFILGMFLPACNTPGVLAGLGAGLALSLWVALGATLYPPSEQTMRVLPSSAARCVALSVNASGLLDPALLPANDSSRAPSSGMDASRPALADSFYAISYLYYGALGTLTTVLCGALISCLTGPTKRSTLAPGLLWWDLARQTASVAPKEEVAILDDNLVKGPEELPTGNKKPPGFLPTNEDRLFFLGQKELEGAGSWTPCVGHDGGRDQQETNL

B1: sodium/iodide symporter (NIS), wild type, cerulean- or citrine-tagged, Q92911 Cer:A525F; Cit:D237A (protein)
chain: MEAVETGERPTFGAWDYGVFALMLLVSTGIGLWVGLARGGQRSAEDFFTGGRRLAALPVGLSLSASFMSAVQVLGVPSEAYRYGLKFLWMCLGQLLNSVLTALLFMPVFYRLGLTSTYEYLEMRFSRAVRLCGTLQYIVATMLYTGIVIYAPALILNQVTGLDIWASLLSTGIICTFYTAVGGMKAVVWTDVFQVVVMLSGFWVVLARGVMLVGGPRQVLTLAQNHSRINLMDFNPDPRSRYTFWTFVVGGTLVWLSMYGVNQAQVQRYVACRTEKQAKLALLINQVGLFLIVSSAACCGIVMFVFYTDCDPLLLGRISAPDQYMPLLVLDIFEDLPGVPGLFLACAYSGTLSTASTSINAMAAVTVEDLIKPRLRSLAPRKLVIISKGLSLIYGSACLTVAALSSLLGGGVLQGSFTVMGVISGPLLGAFILGMFLPACNTPGVLAGLGAGLALSLWVALGATLYPPSEQTMRVLPSSAARCVALSVNASGLLDPALLPANDSSRAPSSGMDASRPALADSFYFISYLYYGALGTLTTVLCGALISCLTGPTKRSTLAPGLLWWDLARQTASVAPKEEVAILDDNLVKGPEELPTGNKKPPGFLPTNEDRLFFLGQKELEGAGSWTPCVGHDGGRDQQETNL
For B1, the response is 50 in experiment [1] (HeLa cells, parent: est. 15) and -180 in experiment [1] (SW1736 cells, parent: est. -10).

B2: sodium/iodide symporter (NIS), wild type, cerulean- or citrine-tagged, Q92911 Cer:Q471A; Cit:Y242A (protein)
chain: MEAVETGERPTFGAWDYGVFALMLLVSTGIGLWVGLARGGQRSAEDFFTGGRRLAALPVGLSLSASFMSAVQVLGVPSEAYRYGLKFLWMCLGQLLNSVLTALLFMPVFYRLGLTSTYEYLEMRFSRAVRLCGTLQYIVATMLYTGIVIYAPALILNQVTGLDIWASLLSTGIICTFYTAVGGMKAVVWTDVFQVVVMLSGFWVVLARGVMLVGGPRQVLTLAQNHSRINLMDFNPDPRSRYTFWTFVVGGTLVWLSMYGVNQAQVQRYVACRTEKQAKLALLINQVGLFLIVSSAACCGIVMFVFYTDCDPLLLGRISAPDQYMPLLVLDIFEDLPGVPGLFLACAYSGTLSTASTSINAMAAVTVEDLIKPRLRSLAPRKLVIISKGLSLIYGSACLTVAALSSLLGGGVLQGSFTVMGVISGPLLGAFILGMFLPACNTPGVLAGLGAGLALSLWVALGATLYPPSEATMRVLPSSAARCVALSVNASGLLDPALLPANDSSRAPSSGMDASRPALADSFYAISYLYYGALGTLTTVLCGALISCLTGPTKRSTLAPGLLWWDLARQTASVAPKEEVAILDDNLVKGPEELPTGNKKPPGFLPTNEDRLFFLGQKELEGAGSWTPCVGHDGGRDQQETNL
B2: the response in experiment [2] (HeLa cells, parent: est. 15) was -100; in experiment [2] (SW1736 cells, parent: est. -10), -220.

B3: sodium/iodide symporter (NIS), wild type, cerulean- or citrine-tagged, Q92911 Cer:A525F; Cit:Y242A (protein)
chain: MEAVETGERPTFGAWDYGVFALMLLVSTGIGLWVGLARGGQRSAEDFFTGGRRLAALPVGLSLSASFMSAVQVLGVPSEAYRYGLKFLWMCLGQLLNSVLTALLFMPVFYRLGLTSTYEYLEMRFSRAVRLCGTLQYIVATMLYTGIVIYAPALILNQVTGLDIWASLLSTGIICTFYTAVGGMKAVVWTDVFQVVVMLSGFWVVLARGVMLVGGPRQVLTLAQNHSRINLMDFNPDPRSRYTFWTFVVGGTLVWLSMYGVNQAQVQRYVACRTEKQAKLALLINQVGLFLIVSSAACCGIVMFVFYTDCDPLLLGRISAPDQYMPLLVLDIFEDLPGVPGLFLACAYSGTLSTASTSINAMAAVTVEDLIKPRLRSLAPRKLVIISKGLSLIYGSACLTVAALSSLLGGGVLQGSFTVMGVISGPLLGAFILGMFLPACNTPGVLAGLGAGLALSLWVALGATLYPPSEQTMRVLPSSAARCVALSVNASGLLDPALLPANDSSRAPSSGMDASRPALADSFYFISYLYYGALGTLTTVLCGALISCLTGPTKRSTLAPGLLWWDLARQTASVAPKEEVAILDDNLVKGPEELPTGNKKPPGFLPTNEDRLFFLGQKELEGAGSWTPCVGHDGGRDQQETNL
With B3, the response in experiment [2] (HeLa cells, parent: est. 15) was 120; in experiment [2] (SW1736 cells, parent: est. -10) it was -50.

B4: sodium/iodide symporter (NIS), wild type, cerulean- or citrine-tagged, Q92911 Cer:Q471A; Cit:T243A (protein)
chain: MEAVETGERPTFGAWDYGVFALMLLVSTGIGLWVGLARGGQRSAEDFFTGGRRLAALPVGLSLSASFMSAVQVLGVPSEAYRYGLKFLWMCLGQLLNSVLTALLFMPVFYRLGLTSTYEYLEMRFSRAVRLCGTLQYIVATMLYTGIVIYAPALILNQVTGLDIWASLLSTGIICTFYTAVGGMKAVVWTDVFQVVVMLSGFWVVLARGVMLVGGPRQVLTLAQNHSRINLMDFNPDPRSRYTFWTFVVGGTLVWLSMYGVNQAQVQRYVACRTEKQAKLALLINQVGLFLIVSSAACCGIVMFVFYTDCDPLLLGRISAPDQYMPLLVLDIFEDLPGVPGLFLACAYSGTLSTASTSINAMAAVTVEDLIKPRLRSLAPRKLVIISKGLSLIYGSACLTVAALSSLLGGGVLQGSFTVMGVISGPLLGAFILGMFLPACNTPGVLAGLGAGLALSLWVALGATLYPPSEATMRVLPSSAARCVALSVNASGLLDPALLPANDSSRAPSSGMDASRPALADSFYAISYLYYGALGTLTTVLCGALISCLTGPTKRSTLAPGLLWWDLARQTASVAPKEEVAILDDNLVKGPEELPTGNKKPPGFLPTNEDRLFFLGQKELEGAGSWTPCVGHDGGRDQQETNL
For B4, the response in experiment [3] (HeLa cells, parent: est. 15) is -100; in experiment [3] (SW1736 cells, parent: est. -10) it was -330.
